# In the supplement of paper PMC10567573:
# B1: ALDH8A1 (parent)
# chain: WSSRSPQERSRVLNQVADLLEQSL
# Variants of: B1
# Assay: protein stability index of a GFP-peptide fusion (GPS, HEK-293T) (PSI 1-6); higher = more stable
# Settings: c terminus: a fixed tail appended
# 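Further: lentivirally expressed fusions sorted by FACS into six bins by GFP to DsRed ratio, PSI derived from sequencing read proportions per bin multiplied by bin number.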
row,Variant,protein stability index
1,WSSRSPQERSRVLNQVADLLEQSP,4.16
2,WSSRSPQERSRVLNQVADLLEQSE,3.59
3,WSSRSPQERSRVLNQVAALLEQSL,1.98
4,WSSRSPQERSRVLNQVAMLLEQSL,2.17
5,WSSRSPQERSRVLNQVANLLEQSL,2.22
6,WSSRSPQERSRVLNQVASLLEQSL,2.23
7,WSSRSPQERSRVLNQVAKLLEQSL,1.47
8,WSSRSPQERSRRLNQVADLLEQSL,2.71
9,WSSRSPQERSRILNQVADLLEQSL,1.98
10,WSSRSPQERSRHLNQVADLLEQSL,3.05
11,WSSRSPQERSRPLNQVADLLEQSL,4.23
12,WSSRSPQERSRGLNQVADLLEQSL,3.48
13,WSSRSPQERSRSLNQVADLLEQSL,3.78
14,WSSRSPQERSRALNQVADLLEQSL,3.11
15,WSSRSPQERSRKLNQVADLLEQSL,3.07
16,WSSRSPQERSRDLNQVADLLEQSL,3.85
17,WSSRSPQERSRVLNQWADLLEQSL,2.26
18,WSSRSPQERSRVLNQDADLLEQSL,4.34
19,WSSRSPQERSRVLNQYADLLEQSL,2.29
20,WSSRSPQERSRVLNQLADLLEQSL,2.24
21,WSSRSPQERSRVLNQEADLLEQSL,4.6
22,WSSRSPQERSRVLNQHADLLEQSL,3.55
23,WSSRSPQERSRVLNQQADLLEQSL,4.62
24,WSSRSPQERSRVLNQKADLLEQSL,3.71

row,Variant,protein stability index
1,WSSRSPQERSRVLNQVTDLLEQSL,3.1
2,WSSRSPQERSRVLNQVKDLLEQSL,3.17
3,WSSRSPQERSRVLNQVVDLLEQSL,2.69
4,WSSRSPQERSRVLNQVQDLLEQSL,2.5
5,WSSRSPQERSRVLNQVIDLLEQSL,2.42
6,WSSRSPQERSRVLNQVPDLLEQSL,3.53
7,WSSRSPQERSRVLNQVYDLLEQSL,2.15
8,WSSRSPQERSRVLNQVRDLLEQSL,1.9
9,WSSRSPQERYRVLNQVADLLEQSL,2.37
10,WSSRSPQERLRVLNQVADLLEQSL,2.25
11,WSSRSPQERTRVLNQVADLLEQSL,1.81
12,WSSRSPQERFRVLNQVADLLEQSL,1.24
13,WSSRSPQERMRVLNQVADLLEQSL,2.45
14,WSSRSPQERPRVLNQVADLLEQSL,2.49
15,WSSRSPQERQRVLNQVADLLEQSL,2.32
16,WSSRSPQERVRVLNQVADLLEQSL,2.05
17,FSSRSPQERSRVLNQVADLLEQSL,2.67
18,ASSRSPQERSRVLNQVADLLEQSL,3.21
19,KSSRSPQERSRVLNQVADLLEQSL,3.18
20,QSSRSPQERSRVLNQVADLLEQSL,3.28
21,HSSRSPQERSRVLNQVADLLEQSL,3.56
22,ISSRSPQERSRVLNQVADLLEQSL,2.69
23,YSSRSPQERSRVLNQVADLLEQSL,2.68
24,ESSRSPQERSRVLNQVADLLEQSL,3.54

row,Variant,protein stability index
1,DSSRSPQERSRVLNQVADLLEQSL,3.69
2,RSSRSPQERSRVLNQVADLLEQSL,3.52
3,MSSRSPQERSRVLNQVADLLEQSL,3.06
4,SSSRSPQERSRVLNQVADLLEQSL,3.69
5,WSSRSPQERSRVLNQVADLLDQSL,2.58
6,WSSRSPQERSRVLNQVADLLRQSL,2.26
7,WSSRSPQERSRVLNQVADLLVQSL,2.17
8,WSSRSPQERSRVLNQVADLLLQSL,2.11
9,WSSRSPQERSRVLNQVADLLMQSL,2
10,WSSRSPQERSRVLNQVADLLGQSL,2.24
11,WSSRSPQERSRVLNQVADLLIQSL,2.09
12,WSSRSPQERSRVLNQVADLLNQSL,2.52
13,WSSRSPQERSWVLNQVADLLEQSL,1.86
14,WSSRSPQERSCVLNQVADLLEQSL,2.18
15,WSSRSPQERSFVLNQVADLLEQSL,2.43
16,WSSRSPQERSKVLNQVADLLEQSL,1.99
17,WSSRSPQERSSVLNQVADLLEQSL,2.74
18,WSSRSPQERSVVLNQVADLLEQSL,2.68
19,WSSRSPQERSLVLNQVADLLEQSL,2.15
20,WSSRSPQERSHVLNQVADLLEQSL,1.89
21,WSSRSPQERSDVLNQVADLLEQSL,3.37
22,WSSRSPQERSRVLNGVADLLEQSL,2.66
23,WSSRSPQERSRVLNYVADLLEQSL,1.81
24,WSSRSPQERSRVLNSVADLLEQSL,2.74

row,Variant,protein stability index
1,WSSRSPQERSRVLNDVADLLEQSL,3.31
2,WSSRSPQERSRVLNFVADLLEQSL,1.54
3,WSSRSPQERSRVLNQVADLCEQSL,3.45
4,WSSRSPQERSRVLNQVADLREQSL,3.5
5,WSSRSPQERSRVLNQVADLWEQSL,2.82
6,WSSRSPQERSRVLNQVADLIEQSL,2.28
7,WSSRSPQERSRVLNQVADLMEQSL,3.44
8,WSSRSPQERSRVLNQVADLFEQSL,2.75
9,WSSRSPQERSRVLNQVADPLEQSL,4.63
10,WSSRSPQERSRVLNQVADALEQSL,3.18
11,WSSRSPQERSRVLNQVADYLEQSL,3.15
12,WSSRSPQERSRVLNQVADQLEQSL,4.19
13,WSSRSPQERSRVLNQVADTLEQSL,3.74
14,WSSRSPQERSRVLNQVADELEQSL,4.4
15,WSSRSPQERSRVLNQVADSLEQSL,4.14
16,WSSRSHQERSRVLNQVADLLEQSL,2.73
17,WSSRSKQERSRVLNQVADLLEQSL,2.42
18,WSSRSYQERSRVLNQVADLLEQSL,1.98
19,WSSRSRQERSRVLNQVADLLEQSL,2.31
20,WSSRSLQERSRVLNQVADLLEQSL,2.17
21,WSSRSQQERSRVLNQVADLLEQSL,2.85
22,WSSRSMQERSRVLNQVADLLEQSL,1.99
